According to patent US20240360223A1 (DRAGONFLY THERAPEUTICS, published 2024):
Values joined by “and” are separate entries in the source; they are usually repeats but may differ in a detail not shown here. Equal entries are not always repeated.

Columns and labels:
[1] = target: T1, human NKG2D (recombinant mFc-tagged dimer) (human, UniProt P26718 78-216); test: SPR, kinetic fit, after 4 weeks at 40 °C
T1 construct: also called hNKG2D
T1 sequence (looked up): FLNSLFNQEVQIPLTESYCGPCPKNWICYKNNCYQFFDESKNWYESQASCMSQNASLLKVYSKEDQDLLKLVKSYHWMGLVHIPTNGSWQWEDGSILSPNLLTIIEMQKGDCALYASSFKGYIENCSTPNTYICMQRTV

[2] = target: T1, human NKG2D (recombinant mFc-tagged …); test: SPR, kinetics fit
Description: NKG2D is a native dimer, therefore recombinant mFc-tagged NKG2D dimer was used for this experiment. Two different fits were utilized to obtain the equilibrium affinity data: steady state affinity fit and kinetic fit.

human CD32b = target: T2, human CD32b (human, UniProt P31994 46-217, limits assumed); test: SPR, steady state, average
T2 construct: also called FcγRIIb
T2 sequence (looked up): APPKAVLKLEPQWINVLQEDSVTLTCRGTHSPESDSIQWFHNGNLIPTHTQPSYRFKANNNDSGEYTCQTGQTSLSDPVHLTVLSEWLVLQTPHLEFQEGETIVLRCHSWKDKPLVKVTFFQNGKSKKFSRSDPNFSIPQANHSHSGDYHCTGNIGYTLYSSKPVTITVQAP

B1: AB1424/AB1612 F3′ TriNKET (bispecific antibody, human IgG1, kappa)
chain: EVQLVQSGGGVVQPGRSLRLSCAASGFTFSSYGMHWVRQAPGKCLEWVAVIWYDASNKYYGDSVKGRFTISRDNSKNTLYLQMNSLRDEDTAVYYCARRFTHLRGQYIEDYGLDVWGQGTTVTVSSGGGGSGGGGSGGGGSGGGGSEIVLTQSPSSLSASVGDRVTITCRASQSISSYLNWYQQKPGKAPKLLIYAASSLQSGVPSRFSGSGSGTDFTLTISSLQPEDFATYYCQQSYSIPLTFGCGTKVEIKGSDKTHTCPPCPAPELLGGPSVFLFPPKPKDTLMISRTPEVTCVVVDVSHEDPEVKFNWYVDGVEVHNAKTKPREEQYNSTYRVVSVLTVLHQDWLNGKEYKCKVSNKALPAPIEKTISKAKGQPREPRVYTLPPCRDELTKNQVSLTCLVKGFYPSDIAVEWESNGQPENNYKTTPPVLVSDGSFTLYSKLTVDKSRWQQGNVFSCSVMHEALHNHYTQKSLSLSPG
heavy: EVQLVESGGGLVKPGGSLRLSCAASGFTFSSYSMNWVRQAPGKGLEWVSSISSSSSYIYYADSVKGRFTISRDNAKNSLYLQMNSLRAEDTAVYYCARGAPIGAAAGWFDPWGQGTLVTVSSASTKGPSVFPLAPSSKSTSGGTAALGCLVKDYFPEPVTVSWNSGALTSGVHTFPAVLQSSGLYSLSSVVTVPSSSLGTQTYICNVNHKPSNTKVDKKVEPKSCDKTHTCPPCPAPELLGGPSVFLFPPKPKDTLMISRTPEVTCVVVDVSHEDPEVKFNWYVDGVEVHNAKTKPREEQYNSTYRVVSVLTVLHQDWLNGKEYKCKVSNKALPAPIEKTISKAKGQPREPQVCTLPPSRDELTENQVSLTCLVKGFYPSDIAVEWESNGQPENNYKTTPPVLDSDGSFFLYSWLTVDKSRWQQGNVFSCSVMHEALHNHYTQKSLSLSPG
light: DIQMTQSPSSVSASVGDRVTITCRASQGISSWLAWYQQKPGKAPKLLIYAASSLQSGVPSRFSGSGSGTDFTLTISSLQPEDFATYYCQQGVSFPRTFGGGTKVEIKRTVAAPSVFIFPPSDEQLKSGTASVVCLLNNFYPREAKVQWKVDNALQSGNSQESVTEQDSKDSTYSLSSTLTLSKADYEKHKVYACEVTHQGLSSPVTKSFNRGEC
notes: Chain S: anti-BAFF-R scFv-CH2-CH3; chain H: anti-NKG2D VH-CH1-CH2-CH3; chain L: anti-NKG2D VL-CL; also called AB1612-002
- Kd [1]: 493 nM
- Kd [2]: 439 nM and 453 nM and 466 nM and 465 nM
- Kd (human CD32b): 5900 nM
